Test results: patent US20250296960A1, “PEPTIDE COMPOSITIONS AND METHODS OF USE THEREOF” (priority 2022, published 2025)
Numbered stars: 1 amine (or outer) side, 2 acyl side, 3 side chain; on linkers, the order of the positions; unused ones are H or OH. Square brackets hold non-standard residues; d marks the D form. Primed or numbered codes have the meaning given here. Side chains are listed from the residue outwards. Ends that are not written are not given here. * marks the point of attachment. C18 = C18 fatty acid (C16-C22 fatty acids conjugated via γGlu/8-amino-3,6-dioxaoctanoic acid spacers); methoxinine = methoxinine (m*), COCC[C@H](N[*:1])C(=O)[*:2]; C18″ = C18 fatty acid moiety (of 2OEG-γGlu-C18, K*); γGlu = O=C(O)[C@H](CCC(=O)[*:2])N[*:1]; AEEA = NCCOCCOCC(=O)O; Aib = CC(C)(N)C(=O)O

T1: human glucose-dependent insulinotropic polypeptide receptor (GIPR), expressed on CHO-K1 cells (human, UniProt P48546 22-466)
T1 sequence (looked up): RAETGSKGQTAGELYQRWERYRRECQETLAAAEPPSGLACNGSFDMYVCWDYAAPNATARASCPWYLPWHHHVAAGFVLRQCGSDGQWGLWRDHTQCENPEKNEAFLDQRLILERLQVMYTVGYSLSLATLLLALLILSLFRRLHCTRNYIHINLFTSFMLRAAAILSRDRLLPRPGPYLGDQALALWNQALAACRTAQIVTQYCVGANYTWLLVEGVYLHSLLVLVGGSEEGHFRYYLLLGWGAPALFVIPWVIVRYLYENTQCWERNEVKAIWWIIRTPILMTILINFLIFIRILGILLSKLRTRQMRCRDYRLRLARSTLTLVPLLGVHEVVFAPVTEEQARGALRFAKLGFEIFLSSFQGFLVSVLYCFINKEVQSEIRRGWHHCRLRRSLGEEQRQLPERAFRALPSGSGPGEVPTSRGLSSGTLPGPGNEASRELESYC

B1: Peptide No. 5-1D (peptide)
peptide: Y[Aib]QGTFTSDYSK([AEEA-AEEA-γGlu-C18″])YLDYMMARDFVQWLIEGGPSSGAPPPS-NH2
B2: Peptide No. 5-1 (peptide)
peptide: Y[Aib]QGTFTSDYSKYLDYMMARDFVQWLIEGGPSSGAPPPSC-NH2
B3: Peptide No. 5D (peptide)
peptide: H[Aib]QGTFTSDYSK([AEEA-AEEA-γGlu-C18″])YLDYMMARDFVQWLIEGGPSSGAPPPS-NH2
B4: Peptide No. 5-1E (peptide)
peptide: Y[Aib]QGTFTSDK([AEEA-AEEA-γGlu-C18″])SKYLDYMMARDFVQWLIEGGPSSGAPPPS-NH2
B5: SEQ ID NO. 95 (peptide)
peptide: Y[Aib]QGTFTSDYSK([AEEA-AEEA-γGlu-C18])LLDQQAQRDFVQWLLEGGPSSGAPPPS-NH2
B6: SEQ ID NO. 92 (peptide)
peptide: Y[Aib]QGTFTSDYSK([AEEA-AEEA-γGlu-C18])LLDYMMQ[Aib]DFVQYLLEGGPSSGAPPPSK-NH2
modifications: not fully specified (residue 40)
B7: SEQ ID NO. 96 (peptide)
peptide: Y[Aib]QGTFTSDYSK([AEEA-AEEA-γGlu-C18])LLDY[methoxinine][methoxinine]QRDFVQWLLEGGPSSGAPPPS-NH2

molecular target: T2, human glucagon receptor (GCGR), expressed on CHO-K1 cells (human, UniProt P47871 26-477); assay: cell-based or functional assay
T2 sequence (P47871 26-477): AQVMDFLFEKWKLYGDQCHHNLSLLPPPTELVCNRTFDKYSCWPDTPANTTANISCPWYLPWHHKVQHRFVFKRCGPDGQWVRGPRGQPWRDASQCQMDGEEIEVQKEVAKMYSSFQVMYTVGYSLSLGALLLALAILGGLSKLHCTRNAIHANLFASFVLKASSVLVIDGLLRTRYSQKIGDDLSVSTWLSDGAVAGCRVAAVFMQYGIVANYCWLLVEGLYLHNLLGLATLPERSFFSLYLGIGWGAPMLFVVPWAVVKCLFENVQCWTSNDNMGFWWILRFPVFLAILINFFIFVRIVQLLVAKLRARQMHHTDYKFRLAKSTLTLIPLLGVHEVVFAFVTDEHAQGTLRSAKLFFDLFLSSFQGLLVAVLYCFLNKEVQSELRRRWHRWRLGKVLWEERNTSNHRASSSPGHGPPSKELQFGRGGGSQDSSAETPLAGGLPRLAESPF

Going from B1 to B2, the “Ratio vs. GLP-1R” value rises from 36 to 5660.

Compared with B3, B4 is lower in “Ratio vs. GLP-1R” value: 204 for the first, 130 for the second.

molecular target: T1, human glucose-dependent insulinotropic …; assay: cell-based or functional assay

Going from B1 to B2, the “Ratio vs. GLP-1R” value falls from 27 to 11.

First: B3
Second: B4
The “Ratio vs. GLP-1R” value of the first is higher: 8 for the first, 1 for the second.

molecular target: T3, human GLP-1 receptor (GLP-1R), expressed on CHO-K1 cells (human, UniProt P43220 24-463); assay: cell-based or functional assay

B1 and B2 are the same in “Ratio vs. GLP-1R” value: 100 for the first, 100 for the second.

B3 and B4 are the same in “Ratio vs. GLP-1R” value: 100 for the first, 100 for the second.

molecular target: T2, human glucagon receptor (GCGR), …; assay: cell-based or functional assay; remark: another data set of the same source

Going from B5 to B6, the “Ratio vs. GLP-1R” value rises from 1 to 243.

With B7 the “Ratio vs. GLP-1R” value was 10.

Compared with B5, B6 is higher in “Relative % to native ligand” value: 14% for the first, 19% for the second.

For B7, the “Relative % to native ligand” value was 17%.

molecular target: T1, human glucose-dependent insulinotropic …; assay: cell-based or functional assay; remark: another data set of the same source

Compared with B5, B6 is higher in “Ratio vs. GLP-1R” value: 19 for the first, 1530 for the second.

With B7 the “Ratio vs. GLP-1R” value was 56.

Going from B5 to B6, the “Relative % to native ligand” value falls from 316% to 120%.

In the case of B7, the “Relative % to native ligand” value is reported as 102%.

molecular target: T3, human GLP-1 receptor (GLP-1R), …; assay: cell-based or functional assay; remark: another data set of the same source

B5 and B6 are the same in “Ratio vs. GLP-1R” value: 100 for the first, 100 for the second.

In the case of B7, the “Ratio vs. GLP-1R” value is reported as 100.

First: B5
Second: B6
The “Relative % to native ligand” value of the first is higher: 1630% for the first, 8% for the second.

For B7, the “Relative % to native ligand” value was 181%.

molecular target: T2, human glucagon receptor (GCGR), …; assay: cell-based or functional assay; remark: another data set of the same source

Going from B1 to B2, the “Relative % to non-lipidated peptide” value rises from 1% to 100%.

Compared with B3, B4 is lower in “Relative % to non-lipidated peptide” value: 10% for the first, 1% for the second.

molecular target: T1, human glucose-dependent insulinotropic …; assay: cell-based or functional assay; remark: another data set of the same source

First: B1
Second: B2
The “Relative % to non-lipidated peptide” value of the first is higher: 323% for the first, 100% for the second.

First: B3
Second: B4
The “Relative % to non-lipidated peptide” value of the first is higher: 93% for the first, 5% for the second.

molecular target: T3, human GLP-1 receptor (GLP-1R), …; assay: cell-based or functional assay; remark: another data set of the same source

Compared with B1, B2 is lower in “Relative % to non-lipidated peptide” value: 129% for the first, 100% for the second.

Going from B3 to B4, the “Relative % to non-lipidated peptide” value rises from 6% to 48%.

molecular target: T2, human glucagon receptor (GCGR), …; assay: cell-based or functional assay; remark: another data set of the same source

Compared with B1, B2 is higher in “Relative % to native ligand” value: 55% for the first, 6650% for the second.

Compared with B3, B4 is higher in “Relative % to native ligand” value: 72% for the first, 74% for the second.

molecular target: T1, human glucose-dependent insulinotropic …; assay: cell-based or functional assay; remark: another data set of the same source

Going from B1 to B2, the “Relative % to native ligand” value falls from 41% to 13%.

Compared with B3, B4 is lower in “Relative % to native ligand” value: 3% for the first, 1% for the second.

molecular target: T3, human GLP-1 receptor (GLP-1R), …; assay: cell-based or functional assay; remark: another data set of the same source

First: B1
Second: B2
The “Relative % to native ligand” value of the first is higher: 151% for the first, 117% for the second.

First: B3
Second: B4
The “Relative % to native ligand” value of the first is lower: 35% for the first, 57% for the second.
